The record followed here is patent publication US20240327502A1 (Merck Sharp & Dohme, published 2024).

B1: M3C01 (antibody, V domains shown)
VH: QLQLQESGPGLVKPSETLSLTCTVSGGSISSSSYFWGWIRQPPGKGLEWIGSVFYSGSTYYNPSLKSRVTISVDTPKNQFSLRLSSVTAADTAVYYCARHSWDRWVYWGQGTLVTVSS
VL: DIQMTQSPSSVSASVGDRVTITCRASQDISSWLAWYQQKPGKAPKLLIYAASSLQSGVPSRFSGSGSGTDFTLTISSLQPEDFATYYCQQANSFPLTFGGGTKVEIK
notes: IgG
B2: M2B05 (antibody, V domains shown)
VH: QVQLQQWGAGLLRPSETLSLTCTVYGGSFGGYHWSWIRQSPGKGLEWIGEIDHGGNTNFNPSLKSRVTISVDRSKKQFSLKLTSVTAADTAVYYCARGFGVVINNWFDPWGQGTLVTVSS
VL: DIQMTQSPSSLSASVGDRVTITCRASQTINSYLNWYQQKPGKAPTLLIYTVSSLQSGVPSRFSGSGSGTVFSLTISSLQPEDFATYYCQQSYNSPYTFGQGTKLEIK
notes: IgG
B3: M1C7 (antibody, V domains shown)
VH: QVQLVESGGGLVQPGRSLRLSCAASGFTFSSYAMHWVRQAPGKGLEWVAIITYDGSGKYYADSLEGRITISRDDPKSMLYLHMRSLTAEDTAVYYCVKSGSFSSAFWLEDWGQGTLVTVSS
VL: EIVLTQSPATLSLSPGERATLSCRASQSISNFVAWYQQKPGQAPRLLIYDASNGATGTPARFSGSGSGTDFTLTISSLEPEDFAVYYCQQRSTWTFGQGTKVEIKR
notes: IgG; also called MIC7
B4: M3E05 (antibody, V domains shown)
VH: EVQLVESGGSVIQPGGSLRLSCAASGFSVRTNYMNWVRQAPGKGLEWVSVIYSDGRTYYSDSVKGRFTISRDNSMNNVFLQMNSLRAEDTAVYYCARDPTFYSSSWWYLDHWGQGTQVTVSS
VL: SYELTQALSVSVARGQTAKITCGGNNIGVRNVHWYQQKPGQAPVLVIYRDNIRPSGIPERFSGSNSGNMAALTISSAQEGDEADYYCQVWDSNTAHVIFGGGTKLTVL
notes: IgG
B5: M2C08 (antibody, V domains shown)
VH: QVQLVQSGAEVKKPGASVIVSCRASGFTFSLYTMHWVRQAPGQGLEWMGWISADNSNTKYSQKYQDRVTITMDTSATTLFMEISSLRSEDTAVYYCTRGPAYYFDSSGFAFDIWGQGTLVTVSS
VL: EIVLTQSPGTLSLSPGERATLSCRASQSVSRTYLGWYQQRPGLAPRLLIYGTSSRATGIPDRFSGSGSGTDFTLTISRLEPEDFATYYCQHFGSSLTFGGGTKVEIK
notes: IgG
B6: M2B11 (antibody, V domains shown)
VH: QVQLVQSGTEVKKPGASVKVSCKASGYTFTSHDINWLRQATGQGLEWLGWMNPNSATTGYAQKFQGRVTLTRDISISTAYMELSSLRSDDTAVYYCARNRHYYYADGPTRDAFDIWGQGTVVTVSS
VL: SYELTQTPTVSVSPGQTASITCSGDELGHKYTSWYQQKPGQSPVLVVYQDTKRPSGIPERFSGSNSGNTATLTISGTQVMDEADYYCQAWDSGTVLLGGGTKLTVL
notes: IgG
B7: M3A05 (antibody, V domains shown)
VH: QITLKESGPTLVKPTQTLTLTCTFSGFSLNTGGVSVGWIRQPPGKALEWLALIYWDGDKRYSPSLKSRLTITKDTSKNQVVFTMTNMDPVDTATYYCAHRENSAYIDFWGQGTLVTVSS
VL: QSVLTQPPSVSAAPGQKVTISCSGSSSNIGNNYVSWYQQLPGAAPKLLIYDNNKRPSGIPDRFSGSKSGTSASLGITGLQTGDEADYYCGTWDSSLSVGFYVFGTGTKVTVL
notes: IgG
B8: M3D08 (antibody, V domains shown)
VH: QVQLQESGPGLVKPSETLSLTCSVSGVSISSHYWSWIRQPAGKGLEWIGRLYTSGTTTYNPSLNSRVTMSVDTTNNRLSLRLTSVTAADTAVYYCARDVRLTVFGALHNWFDPWGQGILVTVSS
VL: DIQMTQSPSSLSASVGDRVTITCRASQSIGTHLNWYQQQRGRAPKLLVYAASGLQSGVPSRFSGSGSGTYFTLTISSLQPEDFATYYCQQSYSTPSITFGQGSRLDIK
notes: IgG
B9: M3E06 (antibody, V domains shown)
VH: EVQLVESGGGLVQPGGSLRLSCAASGFTFSSYWMSWVRQAPGKGLEWVANIKQDGSEKYYVDSVKGRFTISRDNAKNSLYLQMNSLRAEDTAVYYCARYYYDSSGYYYYYYYYMDVWGKGTTVTVSS
VL: not shown
notes: IgG
B10: M4B03 (antibody, V domains shown)
VH: QVQLVQSGAEVKKPGASVKVSCKASGYIFSNYRMHWVRQAPGQRLEWMGWITAGSGNTRYSEQFQGRVAFTSDTDATTVSMELSGLRFEDTAVYFCAREYNWNDAFPYWGQGTLVIVSS
VL: SYVLTQPPSVSVAPGQTARIPCGGNNIGSKSVHWYQQKSGRAPVLVVYDDSDRPPGIPDRFSGSNSGNTATLTINKIEAGDEADYYCHVSDDNSDHVFFGGGTQLTVL
notes: IgG
B11: M3A11 (antibody, V domains shown)
VH: EVQLVESGGGLVQPGGSLRLSCAASGFTFSDYSMNWVRQAPGQGLEWISYISSTGSTIYYADSVRGRFTISRDNAKNSLYLQMNTLRAEDTAVYYCARGKTTVTIWFDPWGQGTLVTVSS
VL: SYVLTQPPSVSVAPGQTARITCGGNNIGSKSVHWYQQKPGQAPVLVVYDDSDRPSGIPERFSGSNSGNTATLTISRVEAGDEADYYCQVWHSSSDWVFGGGTRLTVL
notes: IgG
B12: M2C01 (antibody, V domains shown)
VH: EVQLVESGGDLAKPGGSLRLSCEASGFTFSNAWMSWVRQAPGKGLEWVGQIKPHTDGATTDYAAPVKGRFTISRDDSKSTLYLRMNILRIEDTAMYYCTTGPRLSLMWGQGTRVTVSS
VL: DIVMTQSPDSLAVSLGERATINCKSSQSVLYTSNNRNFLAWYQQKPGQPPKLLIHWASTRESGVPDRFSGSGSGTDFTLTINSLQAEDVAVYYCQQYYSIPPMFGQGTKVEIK
notes: IgG
B13: M2C05 (antibody, V domains shown)
VH: EVQLLESGGGLVQPGGSLRLSCAGSGFTFSNYAMSWVRQAPGKGLEWVSDINDRGETTHYADSVKGRFTISRDNSKKKLFLQMNDLRAEDTAIYYCTRAYVVLSVYAPKGFDYWGQGTLVSVSS
VL: DIQMTQSPSILSASEGDRVTITCRASQSVSNWLAWYQQKSGRAPKLLIYKASSLETGVPSRFSGSGSGTEFTLTINNLQPDDFATYYCQHYNGYPYTFGQGTKLEIK
notes: IgG

One assay concerns the target T1, hMPV PostF trimer (human metapneumovirus, strain B2).
T1 construct: also called MPV PostF (dPFv1)
Briefly: BLI, mAb on anti-human Fc sensor.
With B1, the Octet binding response was 0.327 nm.

For B2, the Octet binding response worked out at 0.486 nm.

The molecule B3 returned an Octet binding response of 0.0541 nm.

In turn, B4 came in with an Octet binding response of 0.509 nm.

B5 yielded an Octet binding response of -0.0185 nm.

With B6, the Octet binding response is -0.0289 nm.

In turn, B7 returned an Octet binding response of 0.229 nm.

B8 registered an Octet binding response of 0.307 nm.

Molecule B9 came in with an Octet binding response of 0.329 nm.

Turning to B10, the Octet binding response was -0.061 nm.

In turn, B11 had an Octet binding response of 0.414 nm.

As to B12, the Octet binding response was -0.0726 nm.

The next assay has as its target T2, Processed stabilized hMPV PreF trimer (115BV) (human metapneumovirus, strain B2).
T2 construct: also called Processed hMPV PreF trimer; processed PreF
As to the kind of experiment: BLI, mAb on anti-human Fc sensor. On the technique in general: BLI is a label-free optical method that tracks binding on a fibre tip over time.
Regarding B13, the Octet binding response was 0.464 nm.

In turn, B2 returned an Octet binding response of 0.542 nm.

In turn, B3 registered an Octet binding response of 0.359 nm.

In turn, B5 returned an Octet binding response of 0.157 nm.

In turn, B6 returned an Octet binding response of 0.498 nm.

On to B7, for which the Octet binding response is 0.0071 nm.

The molecule B8 registered an Octet binding response of 0.0113 nm.

B9 gave an Octet binding response of 0.0101 nm.

B10 gave an Octet binding response of 0.108 nm.

Another assay addresses T3, Unprocessed hMPV PreF trimer (human metapneumovirus, strain B2).
T3 construct: also called Unprocessed hMPV WT PreF trimer; unprocessed hMPV PreF trimeric antigen
Briefly: BLI, mAb on anti-human Fc sensor.
B1 returned an Octet binding response of 0.0597 nm.

Regarding B13, the Octet binding response amounted to 0.399 nm.

In the case of B2, the Octet binding response is 0.447 nm.

Turning to B3, the Octet binding response stood at 0.312 nm.

On to B4, for which the Octet binding response turned out to be 0.126 nm.

B5 returned an Octet binding response of 0.415 nm.

Molecule B6 displayed an Octet binding response of 0.38 nm.

On to B10, for which the Octet binding response was 0.324 nm.

Molecule B12 came in with an Octet binding response of 0.107 nm.

For the next assay, the target named is T2, Processed stabilized hMPV PreF trimer …. As to the kind of experiment: BLI, ratio to unprocessed PreF trimer.
B13: the “processed/unprocessed PreF trimer binding ratio” value was 1.16.

Consider B3, for which the “processed/unprocessed PreF trimer binding ratio” value is 1.15.

As to B5, the “processed/unprocessed PreF trimer binding ratio” value was determined as 0.38.

On to B6, for which the “processed/unprocessed PreF trimer binding ratio” value stood at 1.31.

Regarding B7, the “processed/unprocessed PreF trimer binding ratio” value was found to be 0.09.

For B8, the “processed/unprocessed PreF trimer binding ratio” value was 0.17.

As for B9, the “processed/unprocessed PreF trimer binding ratio” value turned out to be 0.18.

For B10, the “processed/unprocessed PreF trimer binding ratio” value worked out at 0.33.
